Source: patent publication US5977435A, “Plant phosphatases” (Performance Plants, Inc., priority 1997, dated 1999)
Several values for one entry are separate records, joined by “and”; a condition that tells them apart may be missing. Equal values may be shown once.

What was measured:
[1] = target: T1, potato phosphatase (Solanum tuberosum, UniProt Q6J5M8); assay: Phosphatase assay B, substrate specificity; conditions: purified potato phosphatase, assay B, pH 5.8, 25° C
T1 sequence (Q6J5M8 with tags, fused parts or gaps V118I/E238V/S277N/V282G/E319A/A394T/S415A/T416I/D418E/I426Y/H428S/N437A): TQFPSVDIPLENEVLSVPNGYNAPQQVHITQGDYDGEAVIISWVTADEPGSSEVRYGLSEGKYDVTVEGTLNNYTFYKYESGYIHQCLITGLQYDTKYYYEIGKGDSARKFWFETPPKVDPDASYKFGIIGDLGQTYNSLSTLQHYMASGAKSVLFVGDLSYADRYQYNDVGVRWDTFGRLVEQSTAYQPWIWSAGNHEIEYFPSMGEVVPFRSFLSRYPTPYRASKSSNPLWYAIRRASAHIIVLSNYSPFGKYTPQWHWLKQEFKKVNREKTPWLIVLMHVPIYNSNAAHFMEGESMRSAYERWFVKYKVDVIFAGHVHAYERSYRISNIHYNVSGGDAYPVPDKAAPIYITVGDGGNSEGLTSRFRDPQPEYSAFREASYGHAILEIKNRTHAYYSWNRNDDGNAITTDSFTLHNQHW
Procedure: Phosphatase activity was determined using assay B and a wide range of compounds, tested at a total concentration of 5 mM unless otherwise specified.
(§1) Phosphatase (0.05 units) was incubated in 1.5 mL cuvettes with 0.9 mL of 50 mM MES-NaOH (pH 5.8) containing 4 mM MgCl2 and an alternative substrate (5 mM unless otherwise indicated) for 6 min at 25° C. Reactions were terminated by the sequential addition of 0.1 mL reagent A (3 M H2 SO4 containing 20 mM ammonium molybdate) and […] of 1% (v/v) Triton X-100. Samples were incubated at 25° C. for 20 min and the A660 was determined. To calculate activities, a standard curve over the range of […] Pi was constructed for each set of assays. Assays were performed in triplicate and controls were run for background amounts of Pi present at each substrate concentration by adding reagent A before the enzyme.

[2] = target: minor 28-kD potato tuber phosphatase isoform; conditions: cited from earlier work
[3] = tested on: P-Tyr phosphatase from Escherichia coli; conditions: E. coli P-Tyr phosphatase; cited from earlier work
[4] = target: potato tuber phosphatase (PTAP) (potato (Solanum tuberosum L. cv. Chiefton))
[5] = target: egg yolk storage phosphoprotein, phosvitin (Gallus gallus (Chicken)) (UniProt P02845)
[6] = substrate: C=C(OP(=O)(O)O)C(=O)O; assay: purified protein, by the assay type; conditions: other: apparent Km, purified potato phosphatase, assay B; pH 5.8; 25.0 °C
[7] = substrate: NC(COP(=O)(O)O)C(=O)O; assay: purified protein, by the assay type; conditions: other: apparent Km, purified potato phosphatase, assay B; pH 5.8; 25.0 °C
[8] = substrate: N[C@@H](Cc1ccc(OP(=O)(O)O)cc1)C(=O)O; assay: purified protein, by the assay type; conditions: other: apparent Km, purified potato phosphatase, assay B; pH 5.8; 25.0 °C
Procedure: (§3) Phosphatase (0.05 units) was incubated in 1.5 mL cuvettes with 0.9 mL of 50 mM MES-NaOH (pH 5.8) containing 4 mM MgCl2 and an alternative substrate (5 mM unless otherwise indicated) for 6 min at 25° C. Reactions were terminated by the sequential addition of 0.1 mL reagent A (3 M H2 SO4 containing 20 mM ammonium molybdate) and 10 ml of 1% (v/v) Triton X-100. Samples were incubated at 25° C. for 20 min and the A660 was determined. To calculate activities, a standard curve over the range of 0.01 to 1.0 mmol Pi was constructed for each set of assays. Assays were performed in triplicate and controls were run for background amounts of Pi present at each substrate concentration by adding reagent A before the enzyme. Hydrolysis was proportional to enzyme concentrations between 0.005 to 0.1 units/mL and remained linear with time for at least 15 min.
(§4) All kinetic parameters are the means of duplicate determinations performed on two separate preparations of the purified enzyme, and are reproducible to within ±10% SE.

[9] = substrate: Nc1ncnc2c1ncn2[C@@H]1O[C@H](COP(=O)(O)OP(=O)(O)OP(=O)(O)O)[C@@H](O)[C@H]1O; assay: purified protein, by the assay type; conditions: other: apparent Km, purified potato phosphatase, assay B; pH 5.8; 25.0 °C
Procedure: as §3, §4

[10] = substrate: O=[N+]([O-])c1ccc(OP(=O)(O)O)cc1; assay: purified protein, by the assay type; conditions: other: apparent Km, purified potato phosphatase, assay B; pH 5.8; 25.0 °C
[11] = Heat-stability of the phosphatase; assay type: physicochemical
Procedure: The phosphatase was relatively heat-stable, losing 0, 52, and 90% of its original activity when incubated for 4 min at 65, 70 and 75° C., respectively.

[12] = tested on: potato tuber phosphotyrosyl proteins; assay: Dephosphorylation of potato tuber phosphotyrosyl proteins by potato tuber phosphatase; assay type: biochemical, Solanum tuberosum; conditions: + 30 units/mL phosphatase
Procedure: A desalted potato tuber extract was incubated at 25° C. in the absence (-) and presence (+) of 30 units/mL purified potato tuber phosphatase. Aliquots were removed at 2 and 19 h and analyzed by immunoblotting using anti-(P-Tyr) IgG (Kamps and Sefton, 1988). The relative P-Tyr content of the 7 antigenic polypeptides was estimated by laser densitometric quantification of the immunoblots as described in the examples. Unless otherwise noted, all values represent the means±SE of triplicate determinations. ^a, the mean of duplicate determinations.
Electroblotting was performed by the method of Moorhead and Plaxton (1990), with the addition of […] o-vanadate to the transfer buffer when maintenance of phosphotyrosyl residues was desired. All immunoblots to be probed with the anti-(black mustard PEP-specific phosphatase) IgG (Duff et al, 1991a) were first pre-treated with sodium m-periodate according to Laine (1988) so as to oxidize antigenic oligosaccharide chains of endogenous tuber glycoproteins. Immunological detection of phosphotyrosylated tuber proteins using anti-(P-Tyr) IgG (Kamps and Sefton, 1988) was performed as referenced above except that the blocking buffer contained 5% (w/v) bovine serum albumin (fraction V) and 1% (w/v) ovalbumin instead of 3% (w/v) defatted milk powder.
Antigenic polypeptides were visualized using an alkaline-phosphatase-taggedsecondary antibody (Moorhead and Plaxton, 1990). Immunological specificities were confirmed by performing immunoblots in which rabbit preimmune serum was substituted for the affinity-purified IgGs. An LKB Ultroscan XL Enhanced Laser Densitometer was used to scan indicated immunoblots. Densitometric data were analysed using the LKB Gelscan XL software (version 2.1). Immunoreactive polypeptides were quantified in terms of their relative absorbance at 633 nm wavelength (A633).
Peeled and diced potato tuber tissue (5 g) was homogenized with a Polytron in 1 volume of 100 mM MES-NaOH (pH 5.8) containing 2 mM PMSF, 2 mM DTT, and 1 mM EDTA. The homogenate was centrifuged for 10 min at 13,000 g in an Eppendorf microfuge, and a 3-mL aliquot of the supernatant fluid was passed at 4° C. through a BioRad Econo-Pac 10DG desalting column that had been pre-equilibrated in homogenization buffer lacking PMSF. Aliquots (0.1 mL) of the desalted crude extract were incubated at 25° C. with and without 3 units of the purified potato phosphatase. Samples were removed at 0, 2 and 19 h and analyzed by immunoblotting using the anti-(P-Tyr) IgG as described supra. Laser densitometric scanning and immunoquantification of the blots was performed as described supra.

[13] = target: T1, potato phosphatase; assay: Specific activity of purified potato tuber phosphatase; assay type: biochemical; design: mature chain from Thr30, C-terminus not determined
Procedure: As an initial step towards the isolation of plant phosphatase genes, the predominant phosphatase from potato tuber was purified to a final P-Tyr-hydrolyzing specific activity of 1917 units/mg (Gellatly et al, 1994). Only a single peak of activity was recovered following chromatography on columns of S-Sepharose, phosphocellulose and Phenyl Superose (Gellatly et al, 1994). One unit is defined as the μmoles of Pi produced per min at 25° C. The enzyme was purified 2289-fold to a final PEP-hydrolyzing specific activity of 618 units/mg and an overall recovery of 31% (Gellatly et al, 1994). With P-Tyr as substrate the final specific activity was increased to approximately 1900 units/mg (Table 1). This final specific activity was higher than any reported for a purified plant phosphatase (Duff et al, 1994).
(§2) Assays were initiated by the addition of enzyme preparation. One unit of phosphatase activity is defined as the quantity of enzyme that would catalyze the hydrolysis of 1 […] of substrate/min at 25° C.
as §1, with “enzyme. Hydrolysis was proportional to enzyme concentrations between 0.005 to 0.1 units/mL and remained linear with time for at least 15 min.” for “enzyme.”
Potato tuber phosphatase was purified by the method of Gellatly et al. (1994).

[14] = target: T1, potato phosphatase; assay: Effect of pH on phosphatase activity (assay A with PEP); assay type: biochemical; design: mature chain from Thr30, C-terminus not determined; conditions: pH/activity profile
Procedure: Unless otherwise stated all kinetic studies of the potato phosphatase were performed with PEP using assay A (infra).
All subsequent kinetic studies were carried out at pH 5.8.
as §2

## NC(COP(=O)(O)O)C(=O)O (stereo not drawn) [P-Ser]
[1]
  Vmax: 389 units/mg
[2]
  dephosphorylation by the minor 28-kD isoform: inability to catalyze dephosphorylation

## N[C@@H](Cc1ccc(OP(=O)(O)O)cc1)C(=O)O [P-Tyr, o-phospho-L-tyrosine]
[3]
  Km: > 6000 µM

## egg yolk storage phosphoprotein, phosvitin (from UniProt P02845)
[4]
  Relative Activity (%) of potato phosphatase with 0.25 mM PEP: 19%

## potato tuber phosphatase (PTAP) (enzyme)
[5]
  phosphoprotein phosphatase activity: 220 units/mg

B1: potato phosphatase (Solanum tuberosum) (protein)
chain: TQFPSVDIPLENEVLSVPNGYNAPQQVHITQGDYDGEAVIISWVTADEPGSSEVRYGLSEGKYDVTVEGTLNNYTFYKYESGYIHQCLITGLQYDTKYYYEIGKGDSARKFWFETPPKVDPDASYKFGIIGDLGQTYNSLSTLQHYMASGAKSVLFVGDLSYADRYQYNDVGVRWDTFGRLVEQSTAYQPWIWSAGNHEIEYFPSMGEVVPFRSFLSRYPTPYRASKSSNPLWYAIRRASAHIIVLSNYSPFGKYTPQWHWLKQEFKKVNREKTPWLIVLMHVPIYNSNAAHFMEGESMRSAYERWFVKYKVDVIFAGHVHAYERSYRISNIHYNVSGGDAYPVPDKAAPIYITVGDGGNSEGLTSRFRDPQPEYSAFREASYGHAILEIKNRTHAYYSWNRNDDGNAITTDSFTLHNQHW
[6]
  Km: 1520 µM
[7]
  Km: 620 µM
[8]
  Km: 990 µM
  Vmax: 1917 units/mg
[9]
  Km: 2160 µM
  Vmax: 368 units/mg
[10]
  Km: 1100 µM

B2: PTAP: potato tuber acid phosphatase purified from Solanum tuberosum tubers; 57 and 55 kD subunits (protein)
chain: TQFPSVDIPLENEVLSVPNGYNAPQQVHITQGDYDGEAVIISWVTADEPGSSEVRYGLSEGKYDVTVEGTLNNYTFYKYESGYIHQCLITGLQYDTKYYYEIGKGDSARKFWFETPPKVDPDASYKFGIIGDLGQTYNSLSTLQHYMASGAKSVLFVGDLSYADRYQYNDVGVRWDTFGRLVEQSTAYGPWIWSAGNHEIEYFPSMGEVVPFRSFLSRYPTPYRASKSSNPLWYAIRRASAHIIVLSNYSPFGKYTPQWHWLKQEFKKVNREKTPWLIVLMHVPIYNSNAAHFMEGESMRSAYERWFVKYKVDVIFAGHVHAYERSYRISNIHYNVSGGDAYPVPDKAAPIYITVGDGGNSEGLTSRFRDPQPEYSAFREASYGHAILEIKNRTHAYYSWNRNDDGNAITTDSFTLHNQHW
[11]; incubated 4 min at 65° C
  loss of original activity: 0%
[11]; incubated 4 min at 70° C
  loss of original activity: 52%
[11]; incubated 4 min at 75° C
  loss of original activity: 90%
[12]; 20 kD polypeptide, 2h
  Relative phosphotyrosyl content after incubation at 25° C: 66 ± 5 % initial value
[12]; 20 kD polypeptide, 19h
  Relative phosphotyrosyl content after incubation at 25° C: 12 ± 3 % initial value
[12]; 34 kD polypeptide, 2h
  Relative phosphotyrosyl content after incubation at 25° C: 40 ± 3 % initial value
[12]; 34 kD polypeptide, 19h
  Relative phosphotyrosyl content after incubation at 25° C: 16 + 2 % initial value
[12]; 85 kD polypeptide, 2h
  Relative phosphotyrosyl content after incubation at 25° C: 69 ± 2 % initial value
[12]; 85 kD polypeptide, 19h
  Relative phosphotyrosyl content after incubation at 25° C: 34 ± 2 % initial value
[12]; 102 kD polypeptide, 2h
  Relative phosphotyrosyl content after incubation at 25° C: 60 ± 5 % initial value
[12]; 102 kD polypeptide, 19h
  Relative phosphotyrosyl content after incubation at 25° C: 36 ± 3 % initial value
[12]; 228.5 kD polypeptide, 2h
  Relative phosphotyrosyl content after incubation at 25° C: 65 ± 2 % initial value
[12]; 228.5 kD polypeptide, 19h
  Relative phosphotyrosyl content after incubation at 25° C: 28 ± 3 % initial value
[13]; final purified preparation
  o-phospho-L-tyrosine (P-Tyr) hydrolyzing specific activity: 1917 μmol Pi produced min^-1 mg^-1 of protein
[13]; final purified preparation, substrate PEP
  PEP-hydrolyzing specific activity: 618 units/mg
[13]; purified PTAP sample used for microprobe analysis
  p-nitrophenyl phosphate-hydrolyzing specific activity: 618 units/mg
[14]
  pH of maximum activity: ~5.8
[14]; listed as potato phosphatase
  pH of half-maximal activity: 4.9 and 6.7
